The test concerns the target N-terminal FLAG-tagged D1 (FLAG-D1) (Synechocystis sp. PCC 6803, UniProt P16033 1-344). The experiment in a line: co-IP.

Data on one molecule can be found in publication PMC9157124 (Plant Physiology, 2022).

B1: Ycf48 assembly factor (natural protein, Synechocystis sp. PCC 6803 (endogenous), UniProt P73069 29-342, looked up)
chain: CSHVPDLAFNPWQEIALETDSTFADIAFTEDPNHGWLVGTKETIFETTDGGDTWEQKLIDLGEEKASFSAVSFSGNEGWITGKPSILLHTTDGGQTWARIPLSEKLPGAPYSIIALGPQTAEMITDLGAIYKTTNGGKNWKALVEGAVGVARTIQRSTDGRYVAVSARGNFYSTWAPGQTEWTPHNRNSSRRLQTMGYGKDGQLWLLARGGQLQFSTDPDAEEWSDVIAPQDKGSWGLLDLSFRTPEEVWVAGASGNLLMSQDGGQTWAKDTGVEDIPANLYRVVFLSPEKGFVLGQDGILLKYNPSTEVAMVP
As to B1, the stoichiometry N (usually a count of units in the complex or per binding partner) was about 1.
